Data from the nanobody polyreactivity screen of Harvey et al. (2022).

Experiment: yeast display, Sf9 membrane polyspecificity reagent, FACS + sequencing; frameworks hold sequencing errors
Procedure, shortened: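 Nanobodies came from a synthetic yeast display library in Saccharomyces cerevisiae BJ5465, induced with galactose for 36–48 hours and stained for 1 hour at 4 °C with 10% biotinylated, detergent-solubilized Sf9 membrane reagent. Cells were enriched on streptavidin microbeads and then FACS-sorted, with low and high (top ~1%) gates set on anti-HA fluorescence for expression and streptavidin fluorescence for reagent binding. Each polyreactivity label reflects the gate a clone came from. Genes were amplified by colony PCR, sequenced by MiSeq 2 × 250 and filtered by CDR length.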

| Sequence | polyreactivity (PSR sort gate) |
| --- | --- |
| QVQLVQSGGGLVQAGGSLRLSCAASGNIFKGYAMRWYRQAPVKERELVAAISKSGGSTYYADSVKGRFTMSRDNAKNTVYLQLNSLKPADTAVYYSNTYTYAGYNYWGQGTQVTVSS | high polyreactivity |
| QVQLVQSGGGLVQAGGSLRLSCAASGRIFKYNAMGWYRQAPGKERDLVAVITSGGSTYYADSVKGRFTISRDNAKNTFYLQMNSQKPEDTAVYSCAKKYYKVHKFDYWGQGTQVTVSS | low polyreactivity |
| QVQLVQSGGGLVQAGGSLRLSCAASGRIFNNYAMGWYRQAPRKERELLAAISGSGGSTYYADSVKGRFTISRDNAKNTVYLQMNCMKPEDTAVYYCSTSGPQYYSRNFDYWGQGTQVTVSS | low polyreactivity |
| QVQLVQSGGGLVQAGGSLRLSCAASGRISIIYAMVWYRQAPGKERELVARISGSGGSTNYADSVKGRFTISRDNAKNTVYLQMNSLKPEDTAVYYCAARHYAVRRSRYPGKLGYYWVQGTQVTVSS | high polyreactivity |
| QVQLVQSGGGLVQAGGSLRLSCAASGSTFSTYAMGWYRQAPGKERELVAAISRYGGLTNYADSVKGRFTISRDNAKNTVYLQMNSLKPEDTAVYYCAARRYDTGNGYDYWGQGTQVTVSS | high polyreactivity |
| QVQLVQSGGGLVQAGGSLRLSCADSGFIFFTNAMGRYRQAPGQDREFVAAISDSSGSTYYADSVKGRFTISRDNAKNTVYLQMNSLKPEDTAVYYCAAEYPQVTIIGYYYYWGQGTQVTVSS | low polyreactivity |
| QVQLVQSGGGLVQAGGSLSLSCAASGYIFISYAMGWNRQAPGQEREFVAAITGDGGSTYADSVKGRFTISRDNAKKTVYGQMNSLKPEDTAVYYCAKKGNASRYFIYDYWGQGTQVTVSS | low polyreactivity |
| QVQLVQSGGGLVQAGVSLRLSCAPSGFTFYKYAMGWYRQAPGKERELVAAISGSGTSTYYADSVKGRFTISRHNAKNTVYLQMNSLKPEDTAVYYCATRIVFTRRRMYSWGQGTQVNVSS | high polyreactivity |
| QVQLVQSGGGLVQEGGSLRLSCAASGSTLSIYAMGWYRQAPGKERELVASITTSGSSTYYADSVKGRFTISRDNAKNTVYLQMNSLKPEDTAVYYCAKRKSYRSQPWGYDYWGQGTQVTVSS | high polyreactivity |
| QVQLVQSWGGLVQAGGSLRLICAASGSIIAYNAMGWYRQAPGKEREMVAAITISGGSTYYADSVKGRFTISRDNAKNNVYLQMNSLKPEDTAVYYSAAAIPGARSRRSYGKYFYWGQGTQVTVSS | low polyreactivity |
| QVQLVVSGGGLVHAGGSLRLSCAASGNTIFYYDLGGYIQAPGKERELVADITSRGTRTYYADSVKGRFTISRDKAKNTVYLQMNSLKPEDTAVYYCNKARGVAYDWGQGTQVTVSS | high polyreactivity |
| QVQLVVSGGGLVQAGGILRLICAASGIIFSFYTMGGYRQAPGKERELVAAISTGGGSTYYADSVKGRFTISRDNAKNTVYLQMNSLIPEDTAVSYCAASQSWYWGGAHDNGEFGYCGQGTQVTVSS | low polyreactivity |
| QVQLVVSGGGLVQAGGSLRLSCAASGFIFGYYAMGWYRQAPGNERALDAAITGRGGSTNYADSVKGRFTISRDNAKNTVYLQMNSLKPEDTAVYYCAKRWRSYSRGGDYWGQGTQVTVSS | high polyreactivity |
| QVQLVVSGGGLVQAGGSLRLSCAASGFTFIVNAMGWYRQAPGKERELVAAISWNGGSTYYADSVKGRFTISRDNAKNTVYLQMNSLKPEATAVYYCAAVRYNSRGSTTPSEMYYWGQGTQVTVSS | low polyreactivity |
| QVQLVVSGGGLVQAGGSLRLSCAASGRFFGYYARGWYRQAPGEERELVAAITRGGSTNYADSVKGRFTISRDNAKNTVYLQMNSLKPEDTAVYYCNARRYRPGTASYDYWGQGTQVTVSS | high polyreactivity |
| QVQLVVSGGGLVQAGGSLRLSCAASGRIFRSYAKGWYRQAPGKERELVAAINYGGTSTYYADSVKGRFTISRDNAKNTVYLQMNSLKPEDTAVYYCAARRPTSPRRYESWGQGTQVTVSS | high polyreactivity |
| QVQLVVSGGGLVQAGGSLRLSCAASGSTFSLNAMGWYRQAPGKERELVAVITRGTSTYYADSVKGRFTISRDNAKNTVYLQMNRLTPEDNAVYYCAAAVWWSVVWAARYGYWGQGTQVTVSS | low polyreactivity |
